Results on four substances are retold here after paper PMC10949841.

For assay [1], the target named is HAdV-C5 hexon labeled with AlexaFluor594 (human adenovirus C5 (HAdV-C5)) (UniProt P04133). The assay can be described thus: MST; hexon labeled with AlexaFluor594 at constant amount, 16 concentrations of hLF or hLF mutant (1:1 serial dilution); 20 mM HEPES pH 7.2, 5 mM NaCl, 0.05% Tween 20; 25°C; Monolith NT.115; n = 2.
In assay [2] the target is HAdV-C5 hexon (human adenovirus C5 (HAdV-C5)) (UniProt P04133). Description: native MS; 0.5 µM hexon:hLF complex purified in buffer D, exchanged into ammonium acetate pH 7.0 and diluted with water to 5.85 mM ammonium acetate; nanoelectrospray, Orbitrap Q Exactive UHMR.
Sequence of HAdV-C5 hexon (human adenovirus C5 (HAdV-C5)) (P04133 whole entry): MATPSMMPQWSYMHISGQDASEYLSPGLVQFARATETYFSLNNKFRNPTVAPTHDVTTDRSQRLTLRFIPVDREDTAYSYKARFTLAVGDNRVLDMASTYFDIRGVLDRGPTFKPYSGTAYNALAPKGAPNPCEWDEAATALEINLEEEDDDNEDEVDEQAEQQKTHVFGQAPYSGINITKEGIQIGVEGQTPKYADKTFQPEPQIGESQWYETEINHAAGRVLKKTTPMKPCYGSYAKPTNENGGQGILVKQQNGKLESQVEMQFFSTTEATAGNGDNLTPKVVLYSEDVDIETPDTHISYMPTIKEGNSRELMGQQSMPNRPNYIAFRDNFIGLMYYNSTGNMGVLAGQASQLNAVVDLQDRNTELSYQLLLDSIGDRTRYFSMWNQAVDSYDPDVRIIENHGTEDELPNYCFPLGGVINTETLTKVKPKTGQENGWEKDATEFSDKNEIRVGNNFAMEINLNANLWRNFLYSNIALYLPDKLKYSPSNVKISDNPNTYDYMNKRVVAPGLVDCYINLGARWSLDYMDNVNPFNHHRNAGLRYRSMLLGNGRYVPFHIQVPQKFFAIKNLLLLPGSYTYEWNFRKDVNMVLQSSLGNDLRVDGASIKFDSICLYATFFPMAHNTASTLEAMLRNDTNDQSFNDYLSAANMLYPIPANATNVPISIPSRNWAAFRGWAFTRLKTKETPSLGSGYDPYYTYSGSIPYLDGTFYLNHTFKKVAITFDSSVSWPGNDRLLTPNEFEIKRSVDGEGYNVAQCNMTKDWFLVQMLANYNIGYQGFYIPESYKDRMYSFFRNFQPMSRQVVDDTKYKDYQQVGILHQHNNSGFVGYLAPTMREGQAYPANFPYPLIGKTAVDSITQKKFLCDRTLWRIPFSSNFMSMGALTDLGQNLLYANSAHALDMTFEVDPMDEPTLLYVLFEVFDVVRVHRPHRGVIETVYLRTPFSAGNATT
Assay [3] shares this target. The assay can be described thus: native MS; 0.5 µM hexon:hLF complex purified in buffer D, exchanged into and diluted with 20 mM ammonium acetate pH 7.0; nanoelectrospray, Orbitrap Q Exactive UHMR.
For assay [4] the target is unchanged. The assay can be described thus: single-particle cryo-EM, 2D class averages; freshly purified hexon:hLF complex (1 mg/mL) on Au Quantifoil R1.2/1.3 grids, Talos Arctica; top and bottom views only, no 3D reconstruction; 2D classes used to refine a hybrid model.

Several values for one entry are separate records, joined by “and”; a condition that tells them apart may be missing. Identical values can stand only once.

Sequence of HAdV-C5 hexon labeled with AlexaFluor594 (human adenovirus C5 (HAdV-C5)) (P04133 whole entry): as above

In assay [1], “hLF mut5 (R24S/R27A/K28A/R30A) (natural protein)” had an affinity relative to WT hLF of less than 20%. Substance “hLF mut7 (N673A/S678A) (natural protein)” returned a reduction of binding affinity against WT hLF in assay [1] of 40%. With “hLF mut8 (E687A/K691A) (natural protein)”, the reduction of binding affinity against WT hLF in assay [1] was found to be 70%. With “human lactoferrin (hLF), wild type (natural protein)”, the stoichiometry N (hLF per hexon trimer) is 1 and 2 in assay [2]; 1 in assay [3]; 2 and 1 in assay [4].
